B1: Human ETHE1 wild type (enzyme, UniProt O95571 8-254, looked up)
chain: VARRQLSQRGGSGAPILLRQMFEPVSCTFTYLLGDRESREAVLIDPVLETAPRDAQLIKELGLRLLYAVNTHCHADHITGSGLLRSLLPGCQSVISRLSGAQADLHIEDGDSIRFGRFALETRASPGHTPGCVTFVLNDHSMAFTGDALLIRGCGRTDFQQGCAKTLYHSVHEKIFTLPGDCLIYPAHDYHGFTVSTVEEERTLNPRLTLSCEEFVKIMGNLNLPKPQQIDFAVPANMRCGVQTPTA
notes: Holds about 1 mol iron per mol protein; also called ETHE1-WT; wild-type ETHE1; source: E. coli Bl21 DE3, purified (His-trap HP, Superdex 75 size exclusion)
B2: Human ETHE1-p.Arg163Trp (enzyme, UniProt O95571 8-254, looked up)
chain: VARRQLSQRGGSGAPILLRQMFEPVSCTFTYLLGDRESREAVLIDPVLETAPRDAQLIKELGLRLLYAVNTHCHADHITGSGLLRSLLPGCQSVISRLSGAQADLHIEDGDSIRFGRFALETRASPGHTPGCVTFVLNDHSMAFTGDALLIRGCGWTDFQQGCAKTLYHSVHEKIFTLPGDCLIYPAHDYHGFTVSTVEEERTLNPRLTLSCEEFVKIMGNLNLPKPQQIDFAVPANMRCGVQTPTA
notes: also called ETHE1 R163W; source: E. coli Bl21 DE3, purified (His-trap HP, Superdex 75 size exclusion)
B3: Human ETHE1-p.Arg163Gln (enzyme, UniProt O95571 8-254, looked up)
chain: VARRQLSQRGGSGAPILLRQMFEPVSCTFTYLLGDRESREAVLIDPVLETAPRDAQLIKELGLRLLYAVNTHCHADHITGSGLLRSLLPGCQSVISRLSGAQADLHIEDGDSIRFGRFALETRASPGHTPGCVTFVLNDHSMAFTGDALLIRGCGQTDFQQGCAKTLYHSVHEKIFTLPGDCLIYPAHDYHGFTVSTVEEERTLNPRLTLSCEEFVKIMGNLNLPKPQQIDFAVPANMRCGVQTPTA
notes: also called ETHE1 R163Q; source: E. coli Bl21 DE3, purified (His-trap HP, Superdex 75 size exclusion)

Molecular target: the molecule itself
Experiment: SEC; Superdex 75 in 50 mM Tris-HCl pH 7.5, 150 mM NaCl, column calibrated with standard proteins; native molecular mass determined; data not shown
With B1 the “stoichiometry N” value was 2. B2 was tested, and the “stoichiometry N” value was 2. In the case of B3, the “stoichiometry N” value is reported as 2.
